The source of these data is paper PMC5290461.

For this test, the target named is GST-β1A-integrin tails (UniProt P05556). The experiment in a line: pull-down; different concentrations of purified His-tagged talin head incubated with glutathione agarose beads preloaded with GST-β1A-integrin tails or GST; lysis buffer A (50 mM Tris-HCl pH 7.4, 1% NP-40, 150 mM NaCl, 1 mM EDTA, protease inhibitors) with 0.5 mg/ml bovine gelatin; bound protein on SDS-PAGE, Coomassie blue, quantified against standards on the same gel; Kd fitted with SigmaPlot.
UniProt P05556, sequence (P05556 21-798): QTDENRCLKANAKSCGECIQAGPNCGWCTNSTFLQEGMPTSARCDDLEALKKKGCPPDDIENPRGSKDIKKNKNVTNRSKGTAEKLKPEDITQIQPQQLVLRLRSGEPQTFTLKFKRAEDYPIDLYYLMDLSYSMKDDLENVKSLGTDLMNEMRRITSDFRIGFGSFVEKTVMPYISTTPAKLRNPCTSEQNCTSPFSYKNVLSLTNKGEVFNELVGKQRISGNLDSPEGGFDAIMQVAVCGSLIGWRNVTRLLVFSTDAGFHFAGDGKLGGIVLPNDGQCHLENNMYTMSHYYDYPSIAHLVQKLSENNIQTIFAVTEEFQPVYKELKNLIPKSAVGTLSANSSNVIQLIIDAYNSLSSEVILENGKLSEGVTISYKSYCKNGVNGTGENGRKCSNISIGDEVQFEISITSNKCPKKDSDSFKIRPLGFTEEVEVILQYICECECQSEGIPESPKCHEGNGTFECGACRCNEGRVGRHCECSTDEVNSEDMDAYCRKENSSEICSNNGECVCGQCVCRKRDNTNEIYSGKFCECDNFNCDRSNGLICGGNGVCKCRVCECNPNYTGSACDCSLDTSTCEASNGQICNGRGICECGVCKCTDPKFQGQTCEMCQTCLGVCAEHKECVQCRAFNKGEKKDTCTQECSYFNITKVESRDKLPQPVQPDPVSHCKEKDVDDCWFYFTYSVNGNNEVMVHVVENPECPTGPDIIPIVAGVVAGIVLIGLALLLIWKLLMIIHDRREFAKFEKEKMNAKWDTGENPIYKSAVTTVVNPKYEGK

Usually Kd stands for the equilibrium constant for the complex coming apart. A low value points to a tighter complex. In turn, “His-tagged talin1(1-446) WT (from UniProt Q9Y490 1-446) (domain or fragment)” showed a Kd of 880 nM. The substance “His-tagged talin2(1-449) WT (from UniProt Q9Y4G6 1-449) (domain or fragment)” displayed a Kd of 350 nM.
